Measured values taken from patent publication US20240392013A1, “IL1RAP ANTIBODIES AND USES THEREOF” (STELEXIS THERAPEUTICS, LLC, priority 2021, published 2024).
Numbering of substitutions follows the chain as printed.

B1: 74804_12A21B: anti-IL1RAP mAb; VH SEQ ID NO:6, VL SEQ ID NO:23, κ light chain (antibody, V domains shown)
VH: QVQLLQSGAEVKKPGSSVKVSCKASGGTFSIYAIDWVRQAPGQGLEWMGGIIPIFGTANSAQKFQGRVTITADKSTSTAYMELSSLRSEDTAVYYCARNGATSDAFDMWGQGTMVTVSS
VL: EIVLTQSPGTLSLSPGERATLSCRASLSVSSNYLAWFQQRPGQAPRLLIHGVSRRATGIPDRFSGSGSGTDFTLTISRLEPEDFAVYYCQQYGSSPLTFGGGTKVEIK
modifications: 74804_12A21B VH and 74804_29D13A VH; 74804_12A21B VL
B2: 74804_43F04A: anti-IL1RAP mAb; VH SEQ ID NO:7, VL SEQ ID NO:22, κ light chain (antibody, V domains shown)
VH: B1 VH with A58E, K63N, V68I, S77N, M108I, S118F
VL: B1 VL with H50Y
modifications: 74804_43F04A VH; 74804_07K10A VL, 74804_29D13A VL and 74804_43F04A VL

What was measured:
Assay type in all cases: cell-based, human
CML cells (K562) = assay: Proliferation of CML cells (K562), Cell-Titer Glo; conditions: 333 nM, 3 days
Description: AML patient samples or cancer cells (AML and CML) were plated at density of 3×10^3 cells/well in two 96-well plates and incubated overnight at 37° C./5% CO2 in humidified incubator. The next day (Day 1) cells in one of the plates were treated with IL1RAP antibody at 10-150 μg/ml at a total volume of 100 μl. Plates were kept at 37° C./5% CO2 in humified for 3-6 days. Cells treated with vehicle or IgG served as controls and every treatment was conducted in triplicates. The second plate was treated on Day 1 with media and cell proliferation was measured on the same day by CellTiter-Glo (Promega, Cat #G7572). In more details, wells were mixed with equal volume (100 μl) of CellTiter-Glo and agitated for 2 minutes followed by 10 minutes incubation at room temperature in the dark. Luminescence signal was measured in Cytation™ (Biotek) plate reader. After 3-6 days, cell proliferation in the […] plates was measured separately in the same way.

AML cells (THP-1) = assay: Expression of differentiation markers in AML cells, flow cytometry; conditions: 150 μg/ml, 48 hours
Description: Methods: AML cells (THP-1) were seeded at 0.5×10^6/well in 6-well plate and were treated with IL1RAP antibody or IgG control at 150 μg/ml for 48 hours. After 48 hours cells were collected, and expression of differentiation markers was monitored by flow cytometry. Cells were stained for CD14 (BD, cat: 325620) and CD15 (Thermo, cat: 17-01-59-42) differentiation markers and data were analyzed with FlowJo.

[1] = tested on: IL1-induced downstream signaling (phospho-ERK, NFκB) in AML patient samples; assay: IL1 signaling in AML patient samples, Western blot; conditions: antibody 20 μg/ml, IL1β 100 ng/ml
Description: AML patient samples or cancer cells (AML, chronic myelogenous leukemia (CML), pancreatic, head and neck squamous cell carcinoma (HNSCC), bladder, non-small-cell lung carcinoma (NSCLC), colorectal and triple-negative breast cancer (TNBC)) were seeded in 6-well plates (5×10^5 cells/well) and incubated overnight at 37° C./5% CO2 in humified incubator. In experiments conducted in cancer cell lines, cells were washed 2× with PBS and serum-starved for 3 hours. Following, cells were treated with IL1RAP antibodies at concentration of 20 μg/ml and incubated for 1 h at 37° C./5% CO2 in humidified incubator. After 1 h, cells were treated with IL1β (Invivogen, cat: rcyec-hil1b), IL33 (Adipogen, cat: AG-40B-0160-C010) or IL36 cytokines (R@D, cat: 6836IL) at 100 ng/ml and incubated for 15 more minutes. Cells were harvested on ice after 1× wash with cold PBS and were centrifuged for 5 minutes at 5000 rpm at 4° C. Cells were then lysed with NP-40 buffer for 5 minutes on ice and centrifuged for 15 minutes at 15000 rpm at 4° C. Supernatants were collected and protein concentrations were determined by BCA (Thermofisher, Cat #PI23225). […] After 3× washes, ECL was applied (Thermofisher, Cat #32106) and proteins were detected after exposure to autoradioraphic films (Worldwide medical products, Cat #41101001) and protein intensity was quantitated using ImageJ software.

AML patient samples = assay: Proliferation of AML patient samples, Cell-Titer Glo; conditions: 1 μM, 7 days
[2] = tested on: patient-derived AML samples; assay: Cell viability of patient-derived AML samples, CellTiter-Glo; conditions: 15 patient-derived AML samples; 0.1-100 nM, 6 days
Description: Primary patient-derived AML cells collected using leukapheresis or peripheral blood draw were selected based on expression levels of IL1RAP, IL1R1 and IL1RL1. On study day 0, cell viability was calculated, and cells were seeded at a density of 20,000 viable cells/well in 96-well plates. Cells were treated on Day 0 with IL1RAP monoclonal antibodies at a concentration of 100 nM followed by 5-fold serial dilutions. Cytarabine treatment (5 μM) was used as a positive control. Plates were kept at 37° C./5% CO2 in humified incubator and media was not changed during the duration of the assay. On Day 6, plates were removed from incubator and equilibrated to room temperature for up to 30 minutes. Then CellTiter-Glo was added to wells (100 μl) and plates were mixed for 2 minutes on plate rocker, followed by 10 minutes incubation at room temperature. Luminescent signal was recorded using Tecan plate reader and IC50s were calculated.

[3] = tested on: IL33-induced NFκB activity; assay: HEK-BlueIL33 NFκB Reporter Assay; conditions: nM range, read-out: IC50, inhibition of IL33-induced NFκB activity
Description: HEK-Blue IL33 (Invivogen, Cat #hkb-hil33) cell line was used to monitor NFκB activity upon stimulation with IL33 cytokine. The secreted embryonic alkaline phosphatase reporter gene (SEAP) is inducible expressed under the control of IFN-β minimal promoter fused to NFκB/AP-1. HEK-BlueIL33 cells were also generated upon stable transfection with human IL1RL1 (ST2) gene. Specificity to IL33 cytokine was achieved by blockage of TNF-α and IL1 response. Cells are maintained in the presence of hygromycin (200 μg/ml), zeocin (100 μg/ml) and blasticidin (10 μg/ml).
For the functional assay, cells were plated at a density of 5×10^4 cells/well in 96-well plates. Cells were treated with each antibody at the highest concentration of 200 μg/ml followed by seven serial 1:3 dilutions and incubated for 45 minutes at 37° C./5% CO^2 in humified incubator. Cells were then stimulated with IL33 (12 μM) and incubated overnight at 37° C./5% CO2 in humified incubator. Every treatment was conducted in triplicates. Following, supernatants from each well were mixed with Quanti-Blue substrate (Invivogen, Cat #rep-qb1) according to manufacturer's recommendations and secreted SEAP was measured using spectrophotometer at 650 nm.

IC50 [3] [nM] | Molecule | Inhibition of cell proliferation (CML cells (K562)) | Expression of CD14 differentiation marker (AML cells (THP-1)) | Expression of CD15 differentiation marker (AML cells (THP-1)) | Inhibition of IL1 signaling (phosphorylation of ERK and NFκB) [1] | Inhibition of cell proliferation (AML patient samples) | Inhibition of viability [2]
– | B1 | inhibited cell proliferation | induced the expression | induced the expression | inhibited IL1 signaling in AML patient samples | inhibited cell proliferation | inhibition of viability of patient-derived AML samples
9.62 | B2 | – | – | – | – | – | –
